In patent US10772972B2, “Anti-STEAP2 antibody drug conjugates, and compositions and uses thereof” (Regeneron Pharmaceuticals, Inc., priority 2016, dated 2020):
Positions count from the first letter of the chain named. One block for each molecule: values may come before it.

Legend:
[1] = tested on: FADU cells (STEAP2 negative); assay: FACS binding to STEAP2-negative FADU cells; details: human-Fc antibodies
Description: (§1) The ability of anti-STEAP2 antibodies to selectively bind to human six-transmembrane epithelial antigen of prostate 2 (STEAP2) endogenously expressing cell lines was determined via FACS analysis.
(§2) Briefly, 1×10^5 cells were incubated with 10 μg/ml of anti STEAP2 antibodies, or isotype control antibodies for 30 min on ice in antibody dilution buffer. Following one wash with antibody dilution buffer, cells were incubated with 10 μg/ml of PE conjugated anti-human or anti mouse Fc secondary antibodies for 30 min on ice. Following one additional wash, samples were incubated with Cytofix (1% formaldehyde) for 20 minutes. After one final wash, samples were filtered through a Pall 96 well filtration block, run on a Hypercyt® cytometer and analyzed in ForeCyt™ (IntelliCyt, Albuquerque, N. Mex.). Mean fluorescence intensities (MFI) were expressed as fold change above unstained levels (background). The average fold above background at antibody concentrations of 100-300 nM were determined. For cell binding EC50 determinations, mAb concentrations ranged from 300 nM to […] and EC50 values were determined from a four-parameter logistic equation over a 12-point response curve (GraphPad Prism).

[2] = tested on: SKBR3 cells (STEAP2 negative); assay: FACS binding to STEAP2-negative SKBR3 cells; details: human-Fc antibodies
Description: as §1, §2

[3] = tested on: Raji cells (STEAP2 negative); assay: FACS binding to STEAP2-negative Raji cells; details: human-Fc antibodies
Description: as §1, §2

hSTEAP3 fused to GFP = biological target: T1, hSTEAP3 fused to GFP (Homo sapiens, UniProt Q658P3); assay: Specificity: binding to HEK293 cells transfected with hSTEAP3-GFP; set-up: key: Wells with GFP positive cells that bound anti STEAP2 antibodies were scored as positive (+); those that did not bind anti STEAP2 antibodies were scored as negative (−); details: transient transfection, 48 h
T1 construct: expressed in transfected cells; host or cells: HEK293
T1 sequence (Q658P3 1-488): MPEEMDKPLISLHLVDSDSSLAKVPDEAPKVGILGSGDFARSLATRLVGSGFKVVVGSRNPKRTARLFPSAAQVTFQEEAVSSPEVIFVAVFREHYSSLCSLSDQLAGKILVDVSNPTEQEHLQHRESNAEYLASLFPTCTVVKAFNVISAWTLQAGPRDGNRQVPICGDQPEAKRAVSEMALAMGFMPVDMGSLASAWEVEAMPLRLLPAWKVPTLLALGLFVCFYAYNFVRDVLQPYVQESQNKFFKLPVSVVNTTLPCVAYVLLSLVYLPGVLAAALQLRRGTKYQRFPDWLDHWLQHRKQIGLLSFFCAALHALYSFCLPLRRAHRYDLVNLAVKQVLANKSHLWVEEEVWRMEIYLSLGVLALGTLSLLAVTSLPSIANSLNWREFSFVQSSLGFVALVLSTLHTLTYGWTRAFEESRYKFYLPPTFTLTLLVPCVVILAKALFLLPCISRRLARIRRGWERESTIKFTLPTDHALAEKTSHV
Description: (§3) Selected STEAP2 antibodies were then tested for binding to other human (h) STEAP family members (STEAP1, STEAP3, and STEAP4). To assess anti STEAP2 antibody specificity, plasmid constructs expressing hSTEAP1, hSTEAP2, hSTEAP3 or hSTEAP4 fused to Green Fluorescent Protein (GFP) were transiently introduced into HEK293 cells via lipofectamine 2000 based methodology. After 48 h, transiently transfected cells were stained with anti STEAP2 antibodies and imaged as described above for the internalization assay.

hSTEAP1 fused to GFP = biological target: T2, hSTEAP1 fused to GFP (Homo sapiens, UniProt Q9UHE8); assay: Specificity: binding to HEK293 cells transfected with hSTEAP1-GFP; set-up: key: Wells with GFP positive cells that bound anti STEAP2 antibodies were scored as positive (+); those that did not bind anti STEAP2 antibodies were scored as negative (−); details: transient transfection, 48 h
T2 construct: expressed in transfected cells; host or cells: HEK293
T2 sequence (Q9UHE8 whole entry, the tested form may be a part): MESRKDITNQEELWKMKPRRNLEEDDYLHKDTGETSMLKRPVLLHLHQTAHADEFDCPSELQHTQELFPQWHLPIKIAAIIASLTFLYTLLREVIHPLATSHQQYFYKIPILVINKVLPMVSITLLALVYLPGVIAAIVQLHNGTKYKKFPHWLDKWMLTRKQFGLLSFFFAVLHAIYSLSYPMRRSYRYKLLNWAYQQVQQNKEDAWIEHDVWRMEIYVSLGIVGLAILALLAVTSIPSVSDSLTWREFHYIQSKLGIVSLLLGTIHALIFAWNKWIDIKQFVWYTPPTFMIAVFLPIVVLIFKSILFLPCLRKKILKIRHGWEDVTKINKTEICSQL
Description: as §3

hSTEAP4 fused to GFP = biological target: T3, hSTEAP4 fused to GFP (Homo sapiens, UniProt Q687X5); assay: Specificity: binding to HEK293 cells transfected with hSTEAP4-GFP; set-up: key: Wells with GFP positive cells that bound anti STEAP2 antibodies were scored as positive (+); those that did not bind anti STEAP2 antibodies were scored as negative (−); details: transient transfection, 48 h
T3 construct: expressed in transfected cells; host or cells: HEK293
T3 sequence (Q687X5 1-459): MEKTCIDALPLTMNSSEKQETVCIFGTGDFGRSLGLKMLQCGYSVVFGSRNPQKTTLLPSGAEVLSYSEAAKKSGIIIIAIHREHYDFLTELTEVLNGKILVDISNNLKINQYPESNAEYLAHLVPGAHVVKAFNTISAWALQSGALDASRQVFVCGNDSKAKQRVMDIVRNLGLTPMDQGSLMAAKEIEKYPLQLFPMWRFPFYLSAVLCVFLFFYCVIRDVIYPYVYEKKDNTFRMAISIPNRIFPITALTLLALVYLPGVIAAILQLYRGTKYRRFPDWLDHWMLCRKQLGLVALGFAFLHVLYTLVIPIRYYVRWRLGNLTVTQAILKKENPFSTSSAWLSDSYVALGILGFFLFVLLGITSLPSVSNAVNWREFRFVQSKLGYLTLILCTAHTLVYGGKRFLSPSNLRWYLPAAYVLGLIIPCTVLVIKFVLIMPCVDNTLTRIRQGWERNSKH
Description: as §3

hSTEAP2 fused to GFP = biological target: T4, hSTEAP2 fused to GFP (Homo sapiens, UniProt Q8NFT2); assay: Specificity: binding to HEK293 cells transfected with hSTEAP2-GFP; set-up: key: Wells with GFP positive cells that bound anti STEAP2 antibodies were scored as positive (+); those that did not bind anti STEAP2 antibodies were scored as negative (−); details: transient transfection, 48 h
T4 construct: expressed in transfected cells; host or cells: HEK293
T4 sequence (Q8NFT2 1-490): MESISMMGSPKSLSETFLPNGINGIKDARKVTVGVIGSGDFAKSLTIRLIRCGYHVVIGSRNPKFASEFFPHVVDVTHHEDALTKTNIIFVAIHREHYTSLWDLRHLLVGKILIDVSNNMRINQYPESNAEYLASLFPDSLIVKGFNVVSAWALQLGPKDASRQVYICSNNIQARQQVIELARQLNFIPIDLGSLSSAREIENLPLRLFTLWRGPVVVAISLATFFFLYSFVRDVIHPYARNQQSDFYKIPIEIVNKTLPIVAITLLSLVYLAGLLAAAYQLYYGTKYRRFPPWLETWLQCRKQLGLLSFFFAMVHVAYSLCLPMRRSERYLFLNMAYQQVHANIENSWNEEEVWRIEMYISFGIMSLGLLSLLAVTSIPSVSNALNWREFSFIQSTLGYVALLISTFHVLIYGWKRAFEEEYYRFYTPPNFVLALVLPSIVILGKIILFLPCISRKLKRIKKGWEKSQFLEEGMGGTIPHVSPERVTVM
Description: as §3

B1: H1H7809N: human-Fc anti-STEAP2 antibody, HCVR SEQ ID NO: 330 (antibody, V domains shown)
VH: QVQLVESGGGVVQPGRSLGLSCAASGFTFSSYGMHWVRQAPGKGLEWVAVIWYDGSNKYYVDSVKGRFTISRDNSKNTLYLQMNSLRAEDTAVYYCAREGLRFLENYYYYYGMDVWGQGTTVTVSS
VL: EIVLTQSPGTLSLSPGERATLSCRASQSISSTYLAWYQQRPGQAPRLLIYGASSRATGIPDRFSGSGSGTDFTLTISRLEPEDFAVYYCQQYGTSPYTFGQGTKLEIK
FADU Avg F.A.B (Fold Above Background) [1]: 21 fold | SKBR3 Avg F.A.B (Fold Above Background) [2]: 37 fold | Raji Avg F.A.B (Fold Above Background) [3]: 3 fold

B3: H1M7814N: anti-STEAP2 antibody, mouse IgG1 Fc, HCVR/LCVR SEQ ID NOs 218/226 (antibody, V domains shown)
VH: QVQLVESGGGVVQPGRSLRLSCVASGFTISSYGMNWVRQAPGKGLEWVAVISYDGGNKYSVDSVKGRFTISRDNSKNTLYLQMNSLRAEDSAVYYCARGRYFDLWGRGTLVTVSS
VL: DIQMTQSPSTLSASVGDRVTITCRASQSISSWLAWYQQKPGRAPNLLISKASSLKSGVPSRFSGSGSGTEFTLTVSSLQPDDFATYYCQQYYSYSYTFGQGTKLEIK
modifications: mouse IgG1 Fc
Binding to hSTEAP3-GFP transfected HEK293 cells (hSTEAP3 fused to GFP): − | Binding to hSTEAP1-GFP transfected HEK293 cells (hSTEAP1 fused to GFP): − | Binding to hSTEAP4-GFP transfected HEK293 cells (hSTEAP4 fused to GFP): − | Binding to hSTEAP2-GFP transfected HEK293 cells (hSTEAP2 fused to GFP): +

Other lines, results leading:

Binding to hSTEAP3-GFP transfected HEK293 cells (hSTEAP3 fused to GFP): − | Binding to hSTEAP1-GFP transfected HEK293 cells (hSTEAP1 fused to GFP): − | Binding to hSTEAP4-GFP transfected HEK293 cells (hSTEAP4 fused to GFP): − | Binding to hSTEAP2-GFP transfected HEK293 cells (hSTEAP2 fused to GFP): +
B2: H2M7810N: anti-STEAP2 antibody, HCVR/LCVR SEQ ID NOs 346/354 (antibody, V domains shown)
VH: B3 VH with V23A, A24V, I29S, S31T, G56S, S60Y, V61A, A88P, S91T
VL: B3 VL with S28I, R42K, N45K, S49Y, K55A, V75I, Y92K

Binding to hSTEAP3-GFP transfected HEK293 cells (hSTEAP3 fused to GFP): − | Binding to hSTEAP1-GFP transfected HEK293 cells (hSTEAP1 fused to GFP): − | Binding to hSTEAP4-GFP transfected HEK293 cells (hSTEAP4 fused to GFP): − | Binding to hSTEAP2-GFP transfected HEK293 cells (hSTEAP2 fused to GFP): +
B4: H2M7807N: anti-STEAP2 antibody, HCVR/LCVR SEQ ID NOs 314/322 (antibody, V domains shown)
VH: B3 VH with V23A, A24V, I29S, S31T, G56S, S60Y, V61A, A88P, S91T
VL: B3 VL with S28I, R42K, N45K, S49Y, K55A, V75I, Y92K, K103N

Binding to hSTEAP3-GFP transfected HEK293 cells (hSTEAP3 fused to GFP): − | Binding to hSTEAP1-GFP transfected HEK293 cells (hSTEAP1 fused to GFP): − | Binding to hSTEAP4-GFP transfected HEK293 cells (hSTEAP4 fused to GFP): − | Binding to hSTEAP2-GFP transfected HEK293 cells (hSTEAP2 fused to GFP): +
B5: H2M7811N: anti-STEAP2 antibody, HCVR/LCVR SEQ ID NOs 362/370 (antibody, V domains shown)
VH: QVQLVESGGGVVQPGRSLRLSCAVSGFTSSTYGMNWVRQAPGKGLEWVAVISFDGSNKYYADSVKGRFTISRDNSKNTLYLQMSSLRPEDTAVYYCARGRYFDLWGRGTLVTVSS
VL: B3 VL with I2T, S28I, R42K, N45K, S49Y, K55A, V75I, Y92K, K103N
